For one substance, stoichiometry N results are on record in PMC6089408.

The assay has as its target Arabidopsis thaliana HAPLESS 2 ectodomain (AtHAP2e; aa 25-494) (Arabidopsis thaliana) (UniProt F4JP36). The experiment in a line: crystal structure; AtHAP2e set to crystallize as a monomer; hanging drop, 293 K, 100 mM sodium citrate pH 4.5, 200 mM zinc acetate; space group P6_(3).

For orientation: stoichiometry N means a count of units in the complex or per binding partner. In the case of “Arabidopsis thaliana HAPLESS 2 ectodomain (AtHAP2e; aa 25-494) (from UniProt F4JP36 25-494) (domain or fragment)”, the stoichiometry N worked out at 3.
